Assay results: article PMC9088798, “An Approach to Derive Functional Peptide Inhibitors of Transcription Factor Activity” (JACS Au, 2022)

System: WT-mDHFR
Assay: DHFR activity assay (NADPH turnover at 340 nm), WT-mDHFR
Type: biochemical, murine
Details: 100 nM WT-mDHFR, 60 µM NADPH, 50 µM DHF, no inhibitor; absorbance 340 nm; first 2.5 min, blank subtracted; average of triplicate experiments, one SD
Method: (A) Fifteen TRE sites were introduced into the mDHFR gene (2 silent and 13 substitutions) to allow for a cJun-induced transcriptional block. […] Change in absorbance at 340 nm was measured to determine the rate of NADPH turnover by (B) WT-mDHFR and (C) TRE-mDHFR with or without the substrate DHF. […] Specific activity was calculated from the linear initial rate (first 2.5 min for WT-mDHFR, first 10 min for TRE-mDHFR; +NADPH only reaction blank subtracted). Data are averages from triplicate experiments with errors shown as one standard deviation.
Jupiter Proteo column (4-μm particle size, 90 Å pore size, 250 × 10 mm; Phenomenex) using a water:acetonitrile gradient (0.1% TFA). Peptides without a SUMO tag, were concentrated after Histrap elution and HPLC purified. […]
or Mtx (1 µM in reaction). Reactions were initiated by the addition of DHF (50 µM in reaction plus a blank reaction with no DHF) and the absorbance at 340 nm of samples was measured using a Varian Cary 50 UV-Vis spectrophotometer. The specific activity (∆OD/minsample― ∆OD/minblank) was calculated using the following equation. Specific activity = 12.3× mg protein Library Construction and TBS Assay: Library inserts were produced using PCR fill-in reactions from synthesised primers (Sigma) with degenerate codons at the desired positions to produce the correct residue options. […]

B1: WT-mDHFR: wild-type murine dihydrofolate reductase, 6xHis-tagged (protein, UniProt P00375 2-187, looked up)
Dihydrofolate reductase: VRPLNCIVAVSQNMGIGKNGDLPWPPLRNEFKYFQRMTTTSSVEGKQNLVIMGRKTWFSIPEKNRPLKDRINIVLSRELKEPPRGAHFLAKSLDDALRLIEQPELASKVDMVWIVGGSSVYQEAMNQPGHLRLFVTRIMQEFESDTFFPEIDLGKYKLLPEYPGVLSEVQEEKGIKYKFEVYEKKD
modifications: 6xHis tag
notes: wild-type murine dihydrofolate reductase, 6xHis-tagged
  Specific activity, +NADPH+DHF: 0.263 ± 0.002 μmol / min / mg protein
